{"source": "patent US20240343823A1", "about": "(Ablynx, published 2024)", "binders": {"B1": {"name": "A022600424 (other)", "chain": "DVQLVESGGGVVQPGGSLRLSCVASGYVHKINFYGWYRQAPGKEREKVAHISIGDQTDYADSAKGRFTISRDESKNTVYLQMNSLRPEDTAAYYCRALSRIWPYDYWGQGTLVTVSSGGGGSEVQLVESGGGVVQPGGSLRLSCAASGFTFSSFAMTWVRRPPGKGLEWVATITNKGVTSYADSVKGRFTISRDNAKNTLYLQMNSLRPEDTALYICANARRTGPRAPTDIGSYRGQGTLVTVSSGGGGSGGGSEVQLVESGGGVVQPGGSLRLSCAASGSIFRSVFSSSTMEWYRQAPGKKRELVARIAPGEGTYYGALYADSVKGRFTISRDNAKNTVYLQMNSLRPEDTALYYCASGVAWGQGTLVTVSSGGGGSGGGSEVQLVESGGGVVQPGGSLRLSCAASGFTFRSFGMSWVRQAPGKGPEWVSSISGSGSDTLYADSVKGRFTISRDNSKNTLYLQMNSLRPEDTALYYCTIGGSLSRSSQGTLVTVSSA", "notes": "Trispecific tetravalent ISVD (VHH) T-cell engager: anti-TCR, two anti-GPC3 (biparatopic), anti-albumin; also called TCE01-5GS-A022600351-9GS-A022600314-9GS-ALB23002-A"}}, "key": {"[1]": {"target": "T1, human GPC3 on tumor cell lines (HepG2, Huh-7, NCI-H661, MKN-45, NCI-H23, BxPC-3, NCI-H292) (human, UniProt P51654 25-554)", "assay": "cell-based or functional assay"}, "[2]": {"target": "T1, human GPC3 on tumor cell lines (HepG2, …)", "assay": "cell-based or functional assay", "remark": "listed apart in the source"}, "[3]": {"target": "T2, Human GPC1 (R&D systems, cat no 4519-GP) (human, UniProt P35052 24-530, limits assumed)", "T2 construct": "Bought", "T2 sequence (looked up)": "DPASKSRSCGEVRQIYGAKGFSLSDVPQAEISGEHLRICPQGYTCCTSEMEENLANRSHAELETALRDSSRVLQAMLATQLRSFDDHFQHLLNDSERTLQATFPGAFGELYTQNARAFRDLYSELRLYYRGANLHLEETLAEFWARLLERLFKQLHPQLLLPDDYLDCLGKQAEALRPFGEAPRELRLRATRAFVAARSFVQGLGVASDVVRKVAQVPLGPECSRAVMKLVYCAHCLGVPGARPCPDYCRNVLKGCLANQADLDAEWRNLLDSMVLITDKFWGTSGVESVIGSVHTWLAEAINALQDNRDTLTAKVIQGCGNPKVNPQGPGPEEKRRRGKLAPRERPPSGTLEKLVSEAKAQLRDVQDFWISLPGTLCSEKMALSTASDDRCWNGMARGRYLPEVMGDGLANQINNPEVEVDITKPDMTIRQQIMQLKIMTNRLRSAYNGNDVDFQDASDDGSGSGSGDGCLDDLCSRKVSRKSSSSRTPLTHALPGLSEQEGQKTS", "assay": "ELISA, GPC1 coated at 2 ug/mL", "method": "(§1) Human GPC1 (R&D systems, cat no 4519-GP), human GPC2 (R&D systems, cat no 2304-GP), human GPC3 (R&D systems, cat no 2119-GP), human Glypican-5 (R&D systems, cat no 2607-G5) and human Glypican-6 (R&D systems, cat no 2845-GP) were directly coated overnight at 4° C. (2 μg/mL, 1×PBS buffer) on a 384-well HB SpectraPlate (PerkinElmer). The following day the plate was washed 6 times (AquaMax microplate washer, Molecular devices) and blocked with 1×PBS+1% Casein for 2 hours at room temperature. […] After 6 final wash steps the es(HS)TMB substrate (SDT) was added and the reaction stopped by addition of 1 M HCl after 10 minutes. The absorbance of the plate was measured at wavelengths 450 and 620 nm on the Clariostar instrument (BMG LABTECH) and the OD₄₅₀-OD₆₂₀ calculated and plotted for data analysis."}, "[4]": {"target": "T3, human Glypican-5 (R&D systems, cat no 2607-G5) (human, UniProt P78333 25-553, limits assumed)", "T3 construct": "Bought; also called GPC5", "T3 sequence (looked up)": "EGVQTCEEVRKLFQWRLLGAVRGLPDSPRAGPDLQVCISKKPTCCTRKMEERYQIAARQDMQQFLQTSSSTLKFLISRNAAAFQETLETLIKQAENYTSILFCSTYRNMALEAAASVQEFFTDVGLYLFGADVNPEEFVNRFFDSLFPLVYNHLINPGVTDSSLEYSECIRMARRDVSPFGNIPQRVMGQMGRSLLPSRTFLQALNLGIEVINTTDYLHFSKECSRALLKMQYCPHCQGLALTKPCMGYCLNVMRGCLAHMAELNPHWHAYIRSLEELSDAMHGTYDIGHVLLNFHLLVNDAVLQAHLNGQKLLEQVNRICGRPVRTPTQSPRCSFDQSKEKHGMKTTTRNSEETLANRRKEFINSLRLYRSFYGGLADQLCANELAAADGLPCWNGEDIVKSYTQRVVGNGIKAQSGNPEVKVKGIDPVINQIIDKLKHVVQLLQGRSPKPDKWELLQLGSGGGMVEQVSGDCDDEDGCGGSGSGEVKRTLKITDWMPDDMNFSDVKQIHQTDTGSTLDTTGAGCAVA", "assay": "ELISA, Glypican-5 coated at 2 ug/mL", "method": "as §1"}, "[5]": {"target": "T4, cyno GPC3 expressed on CHO Flp-In cells (cynomolgus)", "T4 construct": "range 3-559; On cells; also called cyGPC3 CHO; CHO-cGPC3", "assay": "flow cytometry on CHO Flp-In cyno GPC3 cells"}, "[6]": {"target": "T5, human GPC3 expressed on CHO Flp-In cells (human, UniProt P51654 25-554)", "T5 construct": "On cells; Q25-R358, S359-H580; also called hGPC3 CHO; CHO huGPC3", "assay": "flow cytometry on CHO Flp-In human GPC3 cells"}, "[7]": {"target": "T6, human serum albumin (Sigma cat no A8763) (human, UniProt P02768 25-609)", "T6 construct": "also called HSA", "assay": "SPR ProteOn XPR36, serum albumin immobilized by amine coupling, 1:1 model", "method": "(§2) Serum albumin proteins were immobilized on a GLC Sensor Chip (Biorad) via amine coupling, using EDC and NHS chemistry (running buffer: HBS-EP+, pH 7.4). Purified ISVDs were injected for 2 minutes (flow rate 45 μL/min) at different concentrations (between 0.24 nM and 500 nM) and dissociation was followed for 900 s. Regeneration was performed by injecting 10 mM Glycine-HCl (pH 1.5) for 47 seconds (flow rate 100 μL/min). Data was double referenced by subtracting a reference ligand lane and a blank buffer injection. Processed sensorgrams were analyzed based on the 1:1 interaction model (Langmuir binding model) using ProteOn Manager 3.1.0 (Version 3.1.0.6) software."}, "[8]": {"target": "T7, cyno serum albumin (in house produced from animal tissue) (cynomolgus)", "T7 construct": "also called cynomolgus serum albumin", "T7 sequence (A2V9Z4 25-608)": "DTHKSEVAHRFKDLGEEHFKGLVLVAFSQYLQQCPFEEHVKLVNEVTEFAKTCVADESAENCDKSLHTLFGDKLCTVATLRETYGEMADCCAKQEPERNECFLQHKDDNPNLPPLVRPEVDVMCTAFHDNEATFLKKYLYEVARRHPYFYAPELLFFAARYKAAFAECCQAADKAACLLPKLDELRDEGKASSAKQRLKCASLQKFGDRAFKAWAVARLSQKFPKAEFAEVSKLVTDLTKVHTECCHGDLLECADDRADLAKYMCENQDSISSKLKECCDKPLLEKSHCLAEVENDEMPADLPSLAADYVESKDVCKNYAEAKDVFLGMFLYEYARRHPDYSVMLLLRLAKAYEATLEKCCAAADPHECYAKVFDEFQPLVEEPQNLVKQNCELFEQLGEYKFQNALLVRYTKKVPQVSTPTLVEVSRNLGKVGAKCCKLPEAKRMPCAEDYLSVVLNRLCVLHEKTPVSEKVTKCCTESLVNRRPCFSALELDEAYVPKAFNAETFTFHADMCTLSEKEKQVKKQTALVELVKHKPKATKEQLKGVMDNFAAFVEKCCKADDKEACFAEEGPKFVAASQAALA", "assay": "SPR ProteOn XPR36, serum albumin immobilized by amine coupling, 1:1 model", "method": "as §2"}, "[9]": {"target": "mouse serum albumin (DivBioScience cat no IMSA) (mouse, UniProt P07724 25-608)", "sequence (P07724 25-608 limits assumed)": "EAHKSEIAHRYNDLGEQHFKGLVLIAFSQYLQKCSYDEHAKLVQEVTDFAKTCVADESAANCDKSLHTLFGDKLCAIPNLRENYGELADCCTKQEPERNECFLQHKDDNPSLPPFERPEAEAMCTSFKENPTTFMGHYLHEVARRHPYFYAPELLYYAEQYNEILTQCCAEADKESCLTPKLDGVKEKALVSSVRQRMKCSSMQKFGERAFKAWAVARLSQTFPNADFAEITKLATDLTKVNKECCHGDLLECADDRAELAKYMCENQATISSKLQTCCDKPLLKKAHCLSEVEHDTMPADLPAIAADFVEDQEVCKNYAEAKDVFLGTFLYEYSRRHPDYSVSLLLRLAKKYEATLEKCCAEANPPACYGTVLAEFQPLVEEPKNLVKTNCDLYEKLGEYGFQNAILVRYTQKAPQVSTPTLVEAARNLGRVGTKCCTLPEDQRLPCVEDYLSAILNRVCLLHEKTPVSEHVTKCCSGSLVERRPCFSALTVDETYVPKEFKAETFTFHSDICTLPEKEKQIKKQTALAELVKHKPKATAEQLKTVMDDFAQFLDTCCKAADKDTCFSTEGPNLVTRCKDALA", "assay": "SPR ProteOn XPR36, serum albumin immobilized by amine coupling, 1:1 model", "method": "as §2"}, "[10]": {"target": "T4, cyno GPC3 expressed on CHO Flp-In cells", "assay": "flow cytometry on cells expressing GPC3; lower end tied by Table 21 to CHO cyno GPC3"}}, "data": [{"binder": "B1", "values": [{"measurement": "IC50 (M) BxPC-3, xCELLigence human TDC assay", "setting": "[1]", "value": "> 1e-07", "unit": "M"}, {"measurement": "IC50 (M) HepG2, xCELLigence human TDC assay", "setting": "[1]", "value": "1.15e-10", "unit": "M"}, {"measurement": "IC50 (M) Huh-7, xCELLigence human TDC assay", "setting": "[1]", "value": "1.16e-10", "unit": "M"}, {"measurement": "IC50 (M) NCI-H23, xCELLigence human TDC assay", "setting": "[1]", "value": "> 1e-07", "unit": "M"}, {"measurement": "IC50 (M) NCI-H661, xCELLigence human TDC assay", "setting": "[1]", "value": "1.14e-10", "unit": "M"}, {"measurement": "IC50 (M), xCELLigence TDC assay on Huh-7, Primary cy T cells", "setting": "[2]", "value": "2.29e-10", "unit": "M"}, {"measurement": "IC50 (M), xCELLigence TDC assay on Huh-7, Primary hu T cells", "setting": "[2]", "value": "7.59e-11", "unit": "M"}, {"measurement": "binding result", "setting": "[3]", "value": "no binding"}, {"measurement": "binding result", "setting": "[4]", "value": "no binding"}, {"measurement": "EC50", "setting": "[5]", "value": 1.11, "unit": "nM"}, {"measurement": "EC50", "setting": "[6]", "value": 1.82, "unit": "nM"}, {"measurement": "Kd", "setting": "[7]", "value": 0.83, "unit": "nM"}, {"measurement": "Kd", "setting": "[8]", "value": 0.33, "unit": "nM"}, {"measurement": "Kd", "setting": "[9]", "value": 6.9, "unit": "nM"}, {"measurement": "EC50", "setting": "[10]", "value": "1 to 2", "unit": "nM"}]}]}
